No end group written: not given here.
How the values were obtained:
[1] = molecular target: T cell receptors of CD4+ NKT cells from the spleen of BALB/c mice given intranasal Der p 1; assay: tetramer staining of spleen CD4+ T cells, facs
[2] = molecular target: T cell receptors of NKT cells among spleen CD4+ T cells of hemophilia A mice immunized with Factor VIII; assay: fluorochrome-labeled tetramer, 30 minutes at 4 C, Facs
[3] = molecular target: T1, CD1d molecule expressed on JAWS2 cells, P11609
T1 chain: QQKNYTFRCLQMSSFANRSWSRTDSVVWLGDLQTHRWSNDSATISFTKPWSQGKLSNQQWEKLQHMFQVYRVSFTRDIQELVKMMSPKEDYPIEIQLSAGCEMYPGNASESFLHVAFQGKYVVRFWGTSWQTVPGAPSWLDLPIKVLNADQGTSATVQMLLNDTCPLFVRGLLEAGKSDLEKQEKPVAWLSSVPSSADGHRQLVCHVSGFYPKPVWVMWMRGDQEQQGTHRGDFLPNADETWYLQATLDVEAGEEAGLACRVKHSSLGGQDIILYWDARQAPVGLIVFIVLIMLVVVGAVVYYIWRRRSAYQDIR

Binder	percentage of cells stained with the tetramers [1] [%]	further results
HSAIAAVI (peptide-MHC, part only; not given: CD1d and beta-2 microglobulin, part only) [CD1d tetramers loaded with peptide of SEQ ID14]	10	–
YPYVVIL (peptide-MHC, part only; not given: CD1d and beta-2 microglobulin, part only) [CD1d tetramers loaded with peptide of SEQ ID15]	10	–
FSGVAAT (peptide-MHC, part only; not given: CD1d and beta-2 microglobulin, part only) [CD1d tetramers loaded with peptide of SEQ ID13]	10	–
FCHISSH (peptide-MHC, part only; not given: peptide flanks, CD1d, beta-2 microglobulin, part only, also: loaded on fluorochrome-labelled CD1d tetramers) [CD1d tetramers loaded with peptide of SEQ ID1 (44pept)]	–	% of NKT cells recognizing the tetramer [2]: < 45%
Der p 1 in natural sequence (SEQ ID17) (protein) TNACSINGNAPAEIDLRQMRTVTPIRMQGGCGSCWAFSGVAATESAYLAYRNQSLDLAEQELVDCASQHGCHGDTIPRGIEYIQHNGVVQESYYRYVAREQSCRRPNAQRFGISNYCQIYPPNVNKIREALAQTHSAIAVIIGIKDLDAFRHYDGRTIIQRDNGYQPNYHAVNIVGYSNAQGVDYWIVRNSWDTNWGDNGYGYFAANIDLMMIEEYPYVVIL	–	production of cytokines such as IFN-gamma and IL-4 as markers of NKT activation [3]: a significant production of cytokines was present
mutated Der p 1 (SEQ ID16) (protein) TNACSINGNAPAEIDLRQMRTVTPIRMQGGCGSCWASSGVAATESAYLAYRNQSLDLAEQELVDCASQHGCHGDTIPRGIEYIQHNGVVQESYYRYVAREQSCRRPNAQRFGISNYCQIYPPNVNKIREALAQTSSAIAVIIGIKDLDAFRHYDGRTIIQRDNGYQPNYHAVNIVGYSNAQGVDYWIVRNSWDTNWGDNGYGYFAANIDLMMIEESPYVVIL	–	production of IFN-gamma and IL-4 taken as an indication of NKT activation [3]: NKT cells obtained from mice immunized with natural sequence Der p 1 failed to be activated when incubated in the presence of JAWS2 cells loaded with mutated Der p 1
